# Data as given in paper PMC9060813, “Protein with negative surface charge distribution, Bnr1, shows characteristics of a DNA‐mimic protein and may be involved in the adaptation of Burkholderia cenocepacia” (MicrobiologyOpen, 2022).
# B1: recombinant BCAS0292 (Burkholderia negatively surface-charged regulatory protein 1), His-tagged (natural protein, Burkholderia cenocepacia, UniProt B4EQ58 1-179, looked up)
# chain: MSGVRCDGLAIVDAVTLLSAYPDASRDADAPTVIDGRHIYVLRPGDAGQVGHNDNRLFAGLSPGDQLHLRETALALRAEVTVLFIRFALKDAGIVAPIEAEIRDAATPVPDGDDLLHPSCRPMKDHFWRSEVLAPGITTCTADFAVLDRDGAVSGYFRWETAIEIAGSRPDTKQPGVEP
# notes: BCAS0292 protein (Bnr1), PixA family, Burkholderia cenocepacia; calculated molecular weight 19.2 kDa; no cleavage of the tag is told; also called rBCAS0292; rBnr1; source: E. coli BL21 Star (DE3), purified (lysis in 6 M guanidine-HCl, HisPur Ni-NTA, SEC)
# Target: the molecule itself
# Assay: SEC-MALS; 800 micrograms of purified rBCAS0292 on S75 16/60 in 50 mM Tris-HCl, 150 mM NaCl, 5% glycerol, pH 7.5; DAWN MALS and Optilab rEX; reducing and oxidizing conditions
protein,measurement,value
B1,stoichiometry N,2
